In the supplement of paper PMC10567573:

B1: IRX6 (parent)
chain: YPCLEKPRIWSLAHTATASAVEGA

Variants of: B1
Assay: protein stability index of a GFP-peptide fusion (GPS, HEK-293T) (PSI 1-6); higher = more stable
Conditions: c terminus: a fixed tail appended
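Also: lentivirally expressed fusions sorted by FACS into six bins by GFP to DsRed ratio, PSI derived from sequencing read proportions per bin multiplied by bin number.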

Going from YPCLEKPRIWSLAHTHTASAVEGA [A16H] to YPCLEKPRIWSLAHTITASAVEGA [A16I], the protein stability index rises from 1.77 to 1.94.

Compared with YPCLEKPRIWSLAHTKTASAVEGA [A16K], YPCLEKPRIWSLAHTLTASAVEGA [A16L] is lower in protein stability index: 2.68 for the first, 1.87 for the second.

First: YPCLEKPRIWSLAHTMTASAVEGA [A16M]
Second: YPCLEKPRIWSLAHTNTASAVEGA [A16N]
The protein stability index of the first is higher: 3.88 for the first, 3.02 for the second.

First: YPCLEKPRIWSLAHTPTASAVEGA [A16P]
Second: YPCLEKPRIWSLAHTQTASAVEGA [A16Q]
The protein stability index of the first is lower: 1.53 for the first, 2.45 for the second.

Compared with YPCLEKPRIWSLAHTSTASAVEGA [A16S], YPCLEKPRIWSLAHTTTASAVEGA [A16T] is higher in protein stability index: 1.93 for the first, 3.04 for the second.

First: YPCLEKPRIWSLAHTVTASAVEGA [A16V]
Second: YPCLEKPRIWSLAHTWTASAVEGA [A16W]
The protein stability index of the first is higher: 4.23 for the first, 3.44 for the second.

Compared with YPCLEKPRIWSLAHTYTASAVEGA [A16Y], YPCLEKPRIWSLAHTAAASAVEGA [T17A] is lower in protein stability index: 2.99 for the first, 1.71 for the second.

Compared with YPCLEKPRIWSLAHTADASAVEGA [T17D], YPCLEKPRIWSLAHTAEASAVEGA [T17E] is higher in protein stability index: 2.17 for the first, 3.16 for the second.

Compared with YPCLEKPRIWSLAHTAGASAVEGA [T17G], YPCLEKPRIWSLAHTAKASAVEGA [T17K] is lower in protein stability index: 3.55 for the first, 2 for the second.

Compared with YPCLEKPRIWSLAHTALASAVEGA [T17L], YPCLEKPRIWSLAHTAMASAVEGA [T17M] is higher in protein stability index: 1.25 for the first, 2.36 for the second.

Going from YPCLEKPRIWSLAHTANASAVEGA [T17N] to YPCLEKPRIWSLAHTAPASAVEGA [T17P], the protein stability index rises from 2.37 to 2.72.

First: YPCLEKPRIWSLAHTAQASAVEGA [T17Q]
Second: YPCLEKPRIWSLAHTASASAVEGA [T17S]
The protein stability index of the first is higher: 4.21 for the first, 1.83 for the second.

First: YPCLEKPRIWSLAHTAWASAVEGA [T17W]
Second: YPCLEKPRIWSLAHTAYASAVEGA [T17Y]
The protein stability index of the first is lower: 2.29 for the first, 2.64 for the second.

Compared with YPCLEKPRIWSLAHTATDSAVEGA [A18D], YPCLEKPRIWSLAHTATHSAVEGA [A18H] is higher in protein stability index: 1.78 for the first, 2.15 for the second.

Going from YPCLEKPRIWSLAHTATISAVEGA [A18I] to YPCLEKPRIWSLAHTATKSAVEGA [A18K], the protein stability index falls from 3.17 to 2.59.

Compared with YPCLEKPRIWSLAHTATMSAVEGA [A18M], YPCLEKPRIWSLAHTATNSAVEGA [A18N] is lower in protein stability index: 3.02 for the first, 2.65 for the second.

Going from YPCLEKPRIWSLAHTATPSAVEGA [A18P] to YPCLEKPRIWSLAHTATRSAVEGA [A18R], the protein stability index rises from 3.41 to 3.8.

Compared with YPCLEKPRIWSLAHTATTSAVEGA [A18T], YPCLEKPRIWSLAHTATVSAVEGA [A18V] is lower in protein stability index: 3.02 for the first, 2.84 for the second.

Compared with YPCLEKPRIWSLAHTATWSAVEGA [A18W], YPCLEKPRIWSLAHTATYSAVEGA [A18Y] is higher in protein stability index: 2.05 for the first, 3 for the second.

Compared with YPCLEKPRIWSLAHTATADAVEGA [S19D], YPCLEKPRIWSLAHTATAEAVEGA [S19E] is higher in protein stability index: 1.83 for the first, 1.97 for the second.

Going from YPCLEKPRIWSLAHTATAFAVEGA [S19F] to YPCLEKPRIWSLAHTATAIAVEGA [S19I], the protein stability index falls from 3.32 to 2.52.

Compared with YPCLEKPRIWSLAHTATAKAVEGA [S19K], YPCLEKPRIWSLAHTATAMAVEGA [S19M] is higher in protein stability index: 1.9 for the first, 2.98 for the second.

Compared with YPCLEKPRIWSLAHTATANAVEGA [S19N], YPCLEKPRIWSLAHTATAQAVEGA [S19Q] is higher in protein stability index: 2.27 for the first, 3.07 for the second.

Compared with YPCLEKPRIWSLAHTATARAVEGA [S19R], YPCLEKPRIWSLAHTATAVAVEGA [S19V] is higher in protein stability index: 1.91 for the first, 2.07 for the second.

Compared with YPCLEKPRIWSLAHTATAWAVEGA [S19W], YPCLEKPRIWSLAHTATAYAVEGA [S19Y] is higher in protein stability index: 3.1 for the first, 4.1 for the second.

Going from YPCLEKPRIWSLAHTATASDVEGA [A20D] to YPCLEKPRIWSLAHTATASEVEGA [A20E], the protein stability index falls from 2.67 to 1.86.

First: YPCLEKPRIWSLAHTATASFVEGA [A20F]
Second: YPCLEKPRIWSLAHTATASHVEGA [A20H]
The protein stability index of the first is lower: 1.69 for the first, 3.49 for the second.

Going from YPCLEKPRIWSLAHTATASIVEGA [A20I] to YPCLEKPRIWSLAHTATASKVEGA [A20K], the protein stability index rises from 2.52 to 3.07.

First: YPCLEKPRIWSLAHTATASLVEGA [A20L]
Second: YPCLEKPRIWSLAHTATASMVEGA [A20M]
The protein stability index of the first is higher: 3.52 for the first, 1.53 for the second.

First: YPCLEKPRIWSLAHTATASNVEGA [A20N]
Second: YPCLEKPRIWSLAHTATASTVEGA [A20T]
The protein stability index of the first is higher: 2.87 for the first, 2.11 for the second.

Going from YPCLEKPRIWSLAHTATASYVEGA [A20Y] to YPCLEKPRIWSLAHTATASACEGA [V21C], the protein stability index falls from 4.34 to 1.23.

First: YPCLEKPRIWSLAHTATASADEGA [V21D]
Second: YPCLEKPRIWSLAHTATASAFEGA [V21F]
The protein stability index of the first is lower: 1.82 for the first, 3.51 for the second.

Going from YPCLEKPRIWSLAHTATASAHEGA [V21H] to YPCLEKPRIWSLAHTATASAKEGA [V21K], the protein stability index falls from 2.21 to 1.45.

First: YPCLEKPRIWSLAHTATASALEGA [V21L]
Second: YPCLEKPRIWSLAHTATASAMEGA [V21M]
The protein stability index of the first is lower: 1.1 for the first, 1.82 for the second.

Compared with YPCLEKPRIWSLAHTATASANEGA [V21N], YPCLEKPRIWSLAHTATASAPEGA [V21P] is higher in protein stability index: 2.73 for the first, 3.82 for the second.

Compared with YPCLEKPRIWSLAHTATASAREGA [V21R], YPCLEKPRIWSLAHTATASASEGA [V21S] is lower in protein stability index: 2.62 for the first, 1.6 for the second.

First: YPCLEKPRIWSLAHTATASATEGA [V21T]
Second: YPCLEKPRIWSLAHTATASAWEGA [V21W]
The protein stability index of the first is lower: 2.23 for the first, 3.41 for the second.

Compared with YPCLEKPRIWSLAHTATASAYEGA [V21Y], YPCLEKPRIWSLAHTATASAVCGA [E22C] is higher in protein stability index: 2.29 for the first, 3.29 for the second.

Compared with YPCLEKPRIWSLAHTATASAVDGA [E22D], YPCLEKPRIWSLAHTATASAVFGA [E22F] is higher in protein stability index: 2.16 for the first, 3.04 for the second.

First: YPCLEKPRIWSLAHTATASAVGGA [E22G]
Second: YPCLEKPRIWSLAHTATASAVHGA [E22H]
The protein stability index of the first is higher: 3.1 for the first, 2.05 for the second.

Going from YPCLEKPRIWSLAHTATASAVKGA [E22K] to YPCLEKPRIWSLAHTATASAVLGA [E22L], the protein stability index rises from 2.29 to 2.67.

First: YPCLEKPRIWSLAHTATASAVMGA [E22M]
Second: YPCLEKPRIWSLAHTATASAVNGA [E22N]
The protein stability index of the first is higher: 3.75 for the first, 3.13 for the second.

Going from YPCLEKPRIWSLAHTATASAVPGA [E22P] to YPCLEKPRIWSLAHTATASAVRGA [E22R], the protein stability index rises from 2.34 to 2.98.

Going from YPCLEKPRIWSLAHTATASAVSGA [E22S] to YPCLEKPRIWSLAHTATASAVTGA [E22T], the protein stability index rises from 1.1 to 2.63.

Compared with YPCLEKPRIWSLAHTATASAVVGA [E22V], YPCLEKPRIWSLAHTATASAVWGA [E22W] is lower in protein stability index: 2.62 for the first, 1.73 for the second.

Compared with YPCLEKPRIWSLAHTATASAVEAA [G23A], YPCLEKPRIWSLAHTATASAVECA [G23C] is lower in protein stability index: 2.6 for the first, 1.41 for the second.

Compared with YPCLEKPRIWSLAHTATASAVEEA [G23E], YPCLEKPRIWSLAHTATASAVEFA [G23F] is higher in protein stability index: 2.33 for the first, 2.97 for the second.
